Test results published in IntAct's records for PubMed 16203728.

B1: Erbin (Homo sapiens), Q96RT1-2 (parent)
chain: MTTKRSLFVRLVPCRCLRGEEETVTTLDYSHCSLEQVPKEIFTFEKTLEELYLDANQIEELPKQLFNCQSLHKLSLPDNDLTTLPASIANLINLRELDVSKNGIQEFPENIKNCKVLTIVEASVNPISKLPDGFSQLLNLTQLYLNDAFLEFLPANFGRLTKLQILELRENQLKMLPKTMNRLTQLERLDLGSNEFTEVPEVLEQLSGLKEFWMDANRLTFIPGFIGSLKQLTYLDVSKNNIEMVEEGISTCENLQDLLLSSNSLQQLPETIGSLKNITTLKIDENQLMYLPDSIGGLISVEELDCSFNEVEALPSSIGQLTNLRTFAADHNYLQQLPPEIGSWKNITVLFLHSNKLETLPEEMGDMQKLKVINLSDNRLKNLPFSFTKLQQLTAMWLSDNQSKPLIPLQKETDSETQKMVLTNYMFPQQPRTEDVMFISDNESFNPSLWEEQRKQRAQVAFECDEDKDEREAPPREGNLKRYPTPYPDELKNMVKTVQTIVHRLKDEETNEDSGRDLKPHEDQQDINKDVGVKTSESTTTVKSKVDEREKYMIGNSVQKISEPEAEISPGSLPVTANMKASENLKHIVNHDDVFEESEELSSDEEMKMAEMRPPLIETSINQPKVVALSNNKKDDTKETDSLSDEVTHNSNQNNSNCSSPSRMSDSVSLNTDSSQDTSLCSPVKQTHIDINSKIRQEDENFNSLLQNGDILNSSTEEKFKAHDKKDFNLPEYDLNVEERLVLIEKSVDSTATADDTHKLDHINMNLNKLITNDTFQPEIMERSKTQDIVLGTSFLSINSKEETEHLENGNKYPNLESVNKVNGHSEETSQSPNRTEPHDSDCSVDLGISKSTEDLSPQKSGPVGSVVKSHSITNMEIGGLKIYDILSDNGPQQPSTTVKITSAVDGKNIVRSKSATLLYDQPLQVFTGSSSSSDLISGTKAIFKFDSNHNPEEPNIIRGPTSGPQSAPQIYGPPQYNIQYSSSAAVKDTLWHSKQNPQIDHASFPPQLLPRSESTENQSYAKHSANMNFSNHNNVRANTAYHLHQRLGPARHGEMWAISPNDRLIPAVTRSTIQRQSSVSSTASVNLGDPGSTRRAQIPEGDYLSYREFHSAGRTPPMMPGSQRPLSARTYSIDGPNASRPQSARPSINEIPERTMSVSDFNYSRTSPSKRPNARVGSEHSLLDPPGKSKVPRDWREQVLRHIEAKKLEKMPLSNGQMGQPLRPQANYSQIHHPPQASVARHPSREQLIDYLMLKVAHQPPYTQPHCSPRQGHELAKQEIRVRVEKDPELGFSISGGVGGRGNPFRPDDDGIFVTRVQPEGPASKLLQPGDKIIQANGYSFINIEHGQAVSLLKTFQNTVELIIVREVSS

Variants of: B1
Settings: with nod2_human NOD2, Q9HC29
nod2_human NOD2, Q9HC29, sequence (Q9HC29 whole entry): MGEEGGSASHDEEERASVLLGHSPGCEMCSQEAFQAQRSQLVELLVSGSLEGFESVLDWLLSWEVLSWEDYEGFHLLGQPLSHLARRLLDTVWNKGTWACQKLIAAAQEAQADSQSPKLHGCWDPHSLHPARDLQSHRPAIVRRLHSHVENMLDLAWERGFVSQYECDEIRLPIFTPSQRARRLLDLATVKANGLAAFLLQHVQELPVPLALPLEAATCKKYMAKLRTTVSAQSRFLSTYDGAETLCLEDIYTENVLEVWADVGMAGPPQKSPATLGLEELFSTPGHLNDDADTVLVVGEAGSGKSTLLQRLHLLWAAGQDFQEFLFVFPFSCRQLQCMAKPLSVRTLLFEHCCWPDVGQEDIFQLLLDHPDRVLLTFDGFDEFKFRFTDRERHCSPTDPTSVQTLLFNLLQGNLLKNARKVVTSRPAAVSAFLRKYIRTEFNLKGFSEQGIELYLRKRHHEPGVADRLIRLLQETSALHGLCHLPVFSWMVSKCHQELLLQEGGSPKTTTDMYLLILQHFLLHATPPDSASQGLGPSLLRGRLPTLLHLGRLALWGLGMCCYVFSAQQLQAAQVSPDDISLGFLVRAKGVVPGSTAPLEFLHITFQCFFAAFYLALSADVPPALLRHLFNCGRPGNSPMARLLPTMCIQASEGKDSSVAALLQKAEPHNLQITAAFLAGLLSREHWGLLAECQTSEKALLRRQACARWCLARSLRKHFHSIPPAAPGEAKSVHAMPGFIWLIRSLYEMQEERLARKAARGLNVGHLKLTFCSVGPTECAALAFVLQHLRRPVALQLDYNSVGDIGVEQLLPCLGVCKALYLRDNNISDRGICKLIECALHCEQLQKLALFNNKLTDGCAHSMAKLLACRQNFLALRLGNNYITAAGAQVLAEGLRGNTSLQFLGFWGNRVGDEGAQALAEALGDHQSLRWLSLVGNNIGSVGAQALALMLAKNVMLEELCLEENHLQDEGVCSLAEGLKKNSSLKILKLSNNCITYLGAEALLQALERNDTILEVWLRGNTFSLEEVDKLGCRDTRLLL

| Variant | effect of a mutation on the interaction |
| --- | --- |
| P315L | decreasing interaction |
